Where two headings read alike, the source gives them in different places.
Columns and labels:
[1] = molecular target: T1, (MBP)2-WRC, human WAVE regulatory complex (human, UniProt Q7L576 1-1253; Q9Y2A7 1-1128; Q92558 1-178; Q9NYB9 1-158; Q8WUW1 1-75); assay: pull-down
[2] = molecular target: T1, (MBP)2-WRC, human WAVE regulatory …; assay: pull-down; remark: listed apart in the source

binding result [1]	binding result [2]	Binder
binds	–	GST-tagged cytoplasmic domain of DCC (GST-DCC^cyto) (domain or fragment, human, UniProt P43146 1123-1447, looked up) RRSSAQQRKKRATHSAGKRKGSQKDLRPPDLWIHHEEMEMKNIEKPSGTDPAGRDSPIQSCQDLTPVSHSQSETQLGSKSTSHSGQDTEEAGSSMSTLERSLAARRAPRAKLMIPMDAQSNNPAVVSAIPVPTLESAQYPGILPSPTCGYPHPQFTLRPVPFPTLSVDRGFGAGRSQSVSEGPTTQQPPMLPPSQPEHSSSEEAPSRTIPTACVRPTHPLRSFANPLLPPPMSAIEPKVPYTPLLSQPGPTLPKTHVKTASLGLAGKARSPLLPVSVPTAPEVSEESHKPTEDSANVYEQDDLSEQMASLEGLMKQLNAITGSAF
–	binds	GST-DCC^ΔWIRS-cyto (domain or fragment, human, UniProt P43146 1123-1447, looked up) RRSSAQQRKKRATHSAGKRKGSQKDLRPPDLWIHHEEMEMKNIEKPSGTDPAGRDSPIQSCQDLTPVSHSQSETQLGSKSTSHSGQDTEEAGSSMSTLERSLAARRAPRAKLMIPMDAQSNNPAVVSAIPVPTLESAQYPGILPSPTCGYPHPQFTLRPVPFPTLSVDRGFGAGRSQSVSEGPTTQQPPMLPPSQPEHSSSEEAPSRTIPTACVRPTHPLRAAANPLLPPPMSAIEPKVPYTPLLSQPGPTLPKTHVKTASLGLAGKARSPLLPVSVPTAPEVSEESHKPTEDSANVYEQDDLSEQMASLEGLMKQLNAITGSAF
–	binds	GST-DCC^R1343H-cyto (domain or fragment, human, UniProt P43146 1123-1447, looked up) RRSSAQQRKKRATHSAGKRKGSQKDLRPPDLWIHHEEMEMKNIEKPSGTDPAGRDSPIQSCQDLTPVSHSQSETQLGSKSTSHSGQDTEEAGSSMSTLERSLAARRAPRAKLMIPMDAQSNNPAVVSAIPVPTLESAQYPGILPSPTCGYPHPQFTLRPVPFPTLSVDRGFGAGRSQSVSEGPTTQQPPMLPPSQPEHSSSEEAPSRTIPTACVRPTHPLHSFANPLLPPPMSAIEPKVPYTPLLSQPGPTLPKTHVKTASLGLAGKARSPLLPVSVPTAPEVSEESHKPTEDSANVYEQDDLSEQMASLEGLMKQLNAITGSAF
